Data taken from the nanobody polyreactivity screen of Harvey et al. (2022).

Assay: yeast display, Sf9 membrane polyspecificity reagent, FACS + sequencing; frameworks hold sequencing errors
Outline: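 Using colony PCR, genes from sorted yeast display clones were amplified, then sequenced on MiSeq at 2 × 250 and filtered by CDR length. The clones had been stained with 10% biotinylated, detergent-solubilized Sf9 membrane reagent for 1 hour at 4 °C and sorted by FACS into low and high (top ~1%) gates on anti-HA and streptavidin fluorescence. Polyreactivity labels come from the gate of origin.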

Row | Sequence | polyreactivity (PSR sort gate)
1 | QVQLVESGGGLVQAGGSLRLSCAASGFIFGYYAMGWYRQAPGKERELVAAISWSGGSTYYADSVKGRFTISRDNAKNTVYLQMNSLKPEDTAVYYCATASPSTRYGRLGDYWGQGTQVTVSS | low polyreactivity
2 | QVQLQESGGGLVQAGGSLRLSCAASGYISHADEMGWYRQAPGKDHELVASISNGGSTNYADSVKGRFTISRDHAKNTVYLQMNSLNSEDTAVYYCAAWTGQVDIHYYWGQGTQVTVSS | low polyreactivity
3 | QVQLVESGGGLVQAGGSLRLSCAASGITFYRNAMGSYRQAPGKERELVADIDVGDGTYYADSVKGRFTISRDNCKNTVYLQMNSLKPEDTAVYYCNKTFLFLEYDSWGQGTQVTVSS | low polyreactivity
4 | QVHLVESGGGLVQAGGSLRLSCAASGSTLVTNAIGWYRQAPGKERELVAAITFSGGTTYYADSVKGRFTISRDNAKNTVYLQLNSLKPEDTAVYYCAAENWLEYVGYDFWGQGTHVTVSS | high polyreactivity
5 | QVQLVESGGGLVQAGGSLRLSCAASGRTFYYAMGWYRQAPVKERYADSVKGRFTISRDNAKNTVYLQMNSLKPEDTAVYYCAAKVPEPPSLDESDYWGQGTQVTVSS | low polyreactivity
6 | QVQLVESGGGLVQAGGSLRLSCAASGFTKAYAMGWSRQAPGKERELVAVISDRAGSTYYADSVKGRFTISRDNPKNTVYLQMNSLKPEDTAVYYCAADGIGYSYHGRPYIYEYWGQGTQVTVSS | low polyreactivity
7 | QVQLVESGGGLFQAGGSLRLSCAASGIIFQSYDMAWYRQAPGKERELVAAISRGGGSTYYADSVKGRFTISRDNAKNTVYLQMNSLIPEDTAVYYCAADYRGEYDYWGQGTQVTVSS | low polyreactivity
8 | QVHLVESGGGLVQAGGSLRLSCAASGSIFGRYAMGWYRQAPGKERELVANITSGDSTNYADSVKGRFTISRDNAKNTVYLQMNSLKPEDTAVYYCAAYRIGQYDYWGQGTQVTVSS | high polyreactivity
9 | QVQLVESGGGLVQAGGSLRLSCAASGIIFSYYAMGWYRQAPGKERELVAAISSSGVSTNYADSVKGRFTISRDNAKNTVYLQMNSLKPEDTAVYYCNGRGYYWYRPYVNSNGGYWGQGTQVTVSS | high polyreactivity
10 | QDQLVESRGGLVQAGRSLRISCAASGFIFYNYGMGWYRQAPGKEREFVAAITKRGGRTYYADSVKGRFTISRDYAKNTVYLQMTSLKPEDTAVYYCNKAIRQDRWVQEEDYWGQGTQVTVSS | high polyreactivity
11 | QVQLVESGGGLVQAGGILRLSCAASGRTFYYYAMGWYRQAPGKERELVAAISWGGGRTYYADSVKGRFTISRDNAKNTVYLHMNSLKPEDTAVYYCDTTAYNGYDYWGQGTQVTVSS | high polyreactivity
12 | QVQLVESGGGLVQAGGSLRLSCAASGFNFVRYAMGWYRQAPRKERELVAAITRRGGSTHYADSVKGRFTISRDNAKNTVYLQMNSLKPEDTAVYYCGAGRQYYYLDRFPRVQGDYWGQATQVTVSS | high polyreactivity
13 | QVQLVESGGGLVQAGGSLRISCAASGSTFDFYTMGWYRQAHGKEREMVASISWSGRTYYADSVKGRFTISRDNAKNTVYLQMTSLKPEDTAVYYCARRYVVNRDWGDDYWGQGTQVTVSS | high polyreactivity
14 | QVQLVESGGGLVQAGGSLRLSCAASGSIFRSYAMGWYRHAPGKERELVASISRRGGSTYYADSVKGRFTSSRDNSKNTVYLHMNSRKPEDTAVYYCAAVRYNSRVSTTTSEMYYWGQGTQVTVSS | low polyreactivity
15 | QVQLVESGGGLVQAGGSLRLSCAASGITFSGNAMGWYRQAPGKERELVAAISGRGGSTYYADSVKGRFTISRDNAKNTVYLQMNSLKPEDTAVYYCAARVPSPYVATYYYWGQGTQVTVSS | high polyreactivity
16 | QVQLVESGGGLVQAGGSLRLSCAASGSIFVGYDMGWYRQAPGKARELVAAITRDGDTNYADSVKGRFTISRDNAKNTVYLQMNSLKPEDTAVYYCAADRWLYSWFFNYDQGDYWGQGTQVTVSS | low polyreactivity
17 | QVQLVESGGGLVQAGGSLRLSCAASGRIFRGYAMGWYRQAPGKERELVAVISYSGTRTYYADSVKGRFTISRDNAKNTVYLQMNSLKPEDTAVYYCNARANGFKDGYWGQGTQVTVSS | high polyreactivity
